The experiment concerns the target integrin αvβ3 (mouse (endogenous in mouse middle …, UniProt P43406 31-1044; O54890 26-787). Kind of experiment: cell-based or functional assay.

Bridges are numbered along the chain shown (N, C = ends).

Chain of integrin αvβ3 (mouse (P43406 31-1044, chain 1 of 2): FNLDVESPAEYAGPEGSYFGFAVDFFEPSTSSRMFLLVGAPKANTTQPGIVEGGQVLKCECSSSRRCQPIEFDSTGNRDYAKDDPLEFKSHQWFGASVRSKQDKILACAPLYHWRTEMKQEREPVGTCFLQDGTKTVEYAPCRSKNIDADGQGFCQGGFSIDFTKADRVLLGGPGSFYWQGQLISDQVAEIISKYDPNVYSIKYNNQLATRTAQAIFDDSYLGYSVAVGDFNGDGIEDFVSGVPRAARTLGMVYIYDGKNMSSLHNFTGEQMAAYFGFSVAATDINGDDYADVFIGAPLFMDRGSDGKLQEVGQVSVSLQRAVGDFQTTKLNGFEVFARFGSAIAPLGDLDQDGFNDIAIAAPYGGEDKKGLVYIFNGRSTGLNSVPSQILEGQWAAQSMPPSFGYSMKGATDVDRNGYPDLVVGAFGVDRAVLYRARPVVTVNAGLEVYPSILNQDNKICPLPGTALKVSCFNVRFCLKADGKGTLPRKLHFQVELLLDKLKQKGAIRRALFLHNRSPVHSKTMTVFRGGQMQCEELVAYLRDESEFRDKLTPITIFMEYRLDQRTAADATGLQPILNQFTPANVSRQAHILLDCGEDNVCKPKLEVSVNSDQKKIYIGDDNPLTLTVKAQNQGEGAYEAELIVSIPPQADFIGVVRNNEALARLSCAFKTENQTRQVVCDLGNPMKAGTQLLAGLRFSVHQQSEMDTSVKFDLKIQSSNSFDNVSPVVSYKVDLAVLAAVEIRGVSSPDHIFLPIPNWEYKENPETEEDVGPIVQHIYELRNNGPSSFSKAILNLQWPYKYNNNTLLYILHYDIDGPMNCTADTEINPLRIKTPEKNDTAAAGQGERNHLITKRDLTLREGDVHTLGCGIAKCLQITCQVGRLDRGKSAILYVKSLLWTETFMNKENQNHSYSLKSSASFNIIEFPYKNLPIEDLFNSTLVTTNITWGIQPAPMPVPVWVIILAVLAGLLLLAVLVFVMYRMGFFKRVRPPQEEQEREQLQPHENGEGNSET
Chain of integrin αvβ3 (mouse (O54890 26-787, chain 2 of 2): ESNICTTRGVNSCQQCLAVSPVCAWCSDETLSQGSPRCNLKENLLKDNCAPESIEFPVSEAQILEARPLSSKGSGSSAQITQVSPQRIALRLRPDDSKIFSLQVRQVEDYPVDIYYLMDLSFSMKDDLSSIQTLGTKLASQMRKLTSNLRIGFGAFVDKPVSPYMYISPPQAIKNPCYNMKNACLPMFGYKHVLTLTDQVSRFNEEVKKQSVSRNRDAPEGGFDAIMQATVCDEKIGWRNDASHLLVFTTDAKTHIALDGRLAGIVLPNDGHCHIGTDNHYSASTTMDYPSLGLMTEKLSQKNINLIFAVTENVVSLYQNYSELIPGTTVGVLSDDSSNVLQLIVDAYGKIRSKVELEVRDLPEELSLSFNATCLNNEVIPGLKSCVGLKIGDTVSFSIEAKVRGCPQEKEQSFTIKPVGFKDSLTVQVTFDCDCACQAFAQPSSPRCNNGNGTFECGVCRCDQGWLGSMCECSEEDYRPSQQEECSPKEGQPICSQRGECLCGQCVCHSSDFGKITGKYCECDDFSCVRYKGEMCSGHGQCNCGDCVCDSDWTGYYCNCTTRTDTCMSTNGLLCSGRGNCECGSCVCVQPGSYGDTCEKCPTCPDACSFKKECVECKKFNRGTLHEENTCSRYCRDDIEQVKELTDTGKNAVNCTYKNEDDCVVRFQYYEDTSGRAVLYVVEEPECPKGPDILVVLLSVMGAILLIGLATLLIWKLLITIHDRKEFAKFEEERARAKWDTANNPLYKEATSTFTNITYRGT

Turning to H-GCRGDC-NH2 (disulfide 2-6 (inferred)) [H-GCRGDC-NH2 (cRGD)], the “adherence of CFSE-labelled washed platelets to the luminal surface of the MCA under flow after cRGD-MPs, compared to cRGD peptide alone” value was found to be 3 fold.

The values above are taken from PMC6825169, “Extracellular vesicle integrins act as a nexus for platelet adhesion in cerebral microvessels” (Scientific Reports, 2019).
